Test [1] addresses T1, Plasmodium falciparum histidine-rich protein II (HRP-II) (Plasmodium falciparum, UniProt P05227 22-332).
T1 construct: Coating antigen of all ELISAs; also called HRP-II protein; MA-HRPII Ag protein
T1 sequence (looked up): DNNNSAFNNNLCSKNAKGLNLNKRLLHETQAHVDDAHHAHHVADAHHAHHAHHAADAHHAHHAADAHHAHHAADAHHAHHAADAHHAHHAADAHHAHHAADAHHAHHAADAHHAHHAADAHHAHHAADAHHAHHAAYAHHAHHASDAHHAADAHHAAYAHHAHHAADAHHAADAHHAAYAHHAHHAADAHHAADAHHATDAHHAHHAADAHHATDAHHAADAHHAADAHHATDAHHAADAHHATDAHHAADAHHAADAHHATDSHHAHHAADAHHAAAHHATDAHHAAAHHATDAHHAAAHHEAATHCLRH
The test can be described thus: indirect ELISA, four antigen coating concentrations. A general note: In an ELISA, binding on a coated surface is turned into a signal by an enzyme label.

Test [2] deals with T1, Plasmodium falciparum histidine-rich …. The test can be described thus: indirect ELISA, coated MA-HRPII Ag 1 ug/ml, antibody 0.32 ng/ml.
Test [3] has the same target. Description: indirect ELISA, coated MA-HRPII Ag 1 ug/ml, antibody 40 ng/ml.
The target is the same in test [4]. The test can be described thus: indirect ELISA, coated MA-HRPII Ag 1 ug/ml, antibody 1.6 ng/ml.
For test [5] the target is unchanged. Description: indirect ELISA, coated MA-HRPII Ag 1 ug/ml, antibody 8 ng/ml.
Test [6] has the same target. The test can be described thus: indirect ELISA, coated MA-HRPII Ag 1 ug/ml, antibody 1000 ng/ml.
Test [7] has the same target. The test can be described thus: indirect ELISA, four antigen coating concentrations. The source holds these as a separate data set.
Method: The OD values corresponding to different antibody concentrations with different coating concentrations are obtained. Under the same coating concentration, the antibody concentrations are used as an abscissa, the OD values are used as an ordinate, and a logarithmic plot is made. […] An average value thereof is taken and a reciprocal thereof is calculated to get the affinity constant KD.
Test [8] has the same target. The test can be described thus: indirect ELISA, coated MA-HRPII Ag 1 ug/ml, antibody 200 ng/ml.
Test [9] shares this target. Description: indirect ELISA, four antigen coating concentrations. The source holds these as a separate data set.
Method: The OD values corresponding to different antibody concentrations with different coating concentrations are obtained. Under the same coating concentration, the antibody concentrations are used as an abscissa, the 00 values are used as an ordinate, and a logarithmic plot is made. […] An average value thereof is taken and a reciprocal thereof is calculated to get the affinity constant KD.

Read-outs that look alike come from different tables or passages of the source.

We go through four molecules from US20220002395A1 (FAPON BIOTECH, published 2022).

What is called Kd is the concentration at which binding is half-saturated. Low values mean tighter binding, high ones weaker binding.

B1: Anti-HRP-II 3R5 monoclonal antibody (recombinant, expressed in CHO cells; WT) (antibody, mouse IgG2b, kappa, V domains shown)
VH: EVQLQQSGPEVVKPGASVKISCKASGSTLTEYYMNWVKQSHGKGLEWIGDLNPINGGTPYQQKFRDKATLTVDKSSNTAYMELRSLTSEDSALYYCTRGAEEYWGQGTTLTVSS
VL: DVVLTQTPLSLSVTIGQPASISCKSSQSIIYSNGKIYINWFQQRPGQSPKRLMYQLSKIDPGIPDRFSGSGSETDFTLKISRVEAEDLGVYYCLQGTYSPNTFGGGTKLEIKR
notes: Mouse IgG; also called Anti-HRP-H3R5; CHO transient-transfected cell supernatant
Consider B1, for which the Kd in test [1] and in test [7] was 0.633 nM throughout. The “OD value at 450 nm (ref 630 nm)” value in [2] is 0.058 OD; in test [3], 0.402 OD; in test [4], 0.053 OD; in test [5], 0.122 OD; in test [6], 2.34 OD; in test [8], 1.97 OD.

B2: Mutation 1 (antibody, mouse IgG2b, kappa, V domains shown)
VH: EVQLQQSGPEVVKPGASVKISCKASGSTLTDYYMNWVKQSHGKGLEWIGDLNPINGGTAYQQKFRDKATLTVDKSSNTAYMELRSLTSEDSALYYCTRGAEDYWGQGTTLTVSS
VL: DVVLTQTPLSLSVTIGQPASISCKSSQSIIYSNGKIYLNWFQQRPGQSPKRLMYQLSKLDPGIPDRFSGSGSETDFTLKISRVEAEDLGVYYCLQGTYSPQTFGGGTKLEIKR
notes: also called Variant 1
With B2, the dissociation constant (Kd) in [9] was found to be 0.0521 nM. Besides, the “OD value at 450 nm (ref 630 nm)” value in test [2] turned out to be 0.089 OD; in test [3], 0.695 OD; in test [4], 0.16 OD; in test [5], 0.288 OD; in test [6] it was 2.52 OD; in test [8], 2.4 OD.

B3: Mutation 2 (antibody, mouse IgG2b, kappa, V domains shown)
VH: EVQLQQSGPEVVKPGASVKISCKASGSTLTEYYMNWVKQSHGKGLEWIGDLNPINGGTPYQQKFRDKATLTVDKSSNTAYMELRSLTSEDSALYYCTRGAEEYWGQGTTLTVSS
VL: DVVLTQTPLSLSVTIGQPASISCKSSQSIIYSNGKIYLNWFQQRPGQSPKRLMYQLSKIDPGIPDRFSGSGSETDFTLKISRVEAEDLGVYYCLQGTYSPNTFGGGTKLEIKR
notes: WT as framework
In the case of B3, the “OD value at 450 nm (ref 630 nm)” value amounted to 0.077 OD in test [2]; 0.551 OD in test [3]; 0.101 OD in test [4]; 0.189 OD in test [5]; 2.23 OD in [6]; 2.05 OD in test [8].

B4: Mutation 3 (antibody, mouse IgG2b, kappa, V domains shown)
VH: EVQLQQSGPEVVKPGASVKISCKASGSTLTQYYMNWVKQSHGKGLEWIGDLNPINGGTVYQQKFRDKATLTVDKSSNTAYMELRSLTSEDSALYYCTRGAEMYWGQGTTLTVSS
VL: DVVLTQTPLSLSVTIGQPASISCKSSQSIIYSNGKIYGNWFQQRPGQSPKRLMYQLSKFDPGIPDRFSGSGSETDFTLKISRVEAEDLGVYYCLQGTYSPMTFGGGTKLEIKR
notes: WT as framework
As for B4, the “OD value at 450 nm (ref 630 nm)” value is 0.032 OD in test [3], 0.814 OD in [6] and 0.635 OD in test [8].
